In test [1] the test system is SB-HSA tumors. The experiment in a line: treatment of SB-HSA tumor-bearing mice (subcutaneous canine hemangiosarcoma xenograft). The format is in vivo. To be noted: NOD-SCID mice injected s.c. with SB-HSA cells, vs PBS control. The protocol: For example, IL-12 was also shown, to suppress the growth of canine hemangiosarcoma in vivo in this model. IL-12 is a cytokine with pleotropic effects including suppression of angiogenesis due to in vivo inhibition of endothelial cell growth. This activity is mediated by downstream chemokines such as IP-10 and Mig, which are induced by interferon-γ in response to IL-12. […] Control mice that were injected subcutaneously with SB-HSA cells and received phosphate buffered saline developed tumors at the site of cell inoculation by the second week that progressively enlarged over a 4-week observation period.
Canine hemangiosarcoma xenografts were established in NOD-SCID mice by injection of 5×10^6 SB-HSA cells suspended in 200 μl PBS over the dorsum using a 26 gauge needle and tuberculin syringe. Mice were examined every other day until tumors were detected and measured with calipers. Animals were sacrificed when tumors reached a size of 1 cm^3.
NOD-SCID mice were injected subcutaneously over the dorsum with SB-HSA cells (5×10^6 cells/200 μl). […] Pumps were designed to deliver 6 μl/day (1 μg IL-12/day for four weeks. The mice were examined every other day for tumor development. The two largest perpendicular diameters were measured with calipers.

The test system of test [2] is angiogenesis induced by SB-HSA cells. The experiment in a line: corneal pocket angiogenesis assay with sponges containing SB-HSA cells. To be noted: BALB/c mice, sponges with 70,000 SB-HSA cells in cornea; continuous subcutaneous infusion by osmotic pump from day 2; examined one week after treatment; vs PBS-treated control. The class given is in vivo. As to the method:
IL-12 is a cytokine with both immunostimulatory and antiangiogenic effects. In these experiments, sponges containing 70,000 SB-HSA cells were placed into the corneas of BALB/c mice. Two days after placement of the sponges, the mice were randomized to receive either mrIL-12 or phosphate buffered saline. Each was delivered as a continuous subcutaneous infusion by subcutaneously implanted osmotic pumps. One week after treatment, mice were injected with FITC-dextran, euthanized and the corneas examined.
Polyvinyl sponges (Rippey, Eldorado Hills, Calif.) preirradiated with 2000 Gy of gamma irradiation (cesium source) were cut into 4×4×2 mm pieces, and 70,000 SB-HSA cells were introduced into the sponges. BALB/c mice were anesthetized with AVERTIN and a small surgical micropocket was created in the center of the avascular cornea. Sponges were then inserted into the micropocket. Eyes were examined for neovascularization daily using an ophthalmic microscope (Carl Zeiss Inc, Thornwood, N.Y.). […] Phase contrast and fluorescence microscopy were used to visualize the general layout of the cornea and the presence of perfused blood vessels, respectively (Muthukkaruppan, V. and Auerbach, R. Science 1979 205:1416–1418).

B1: Interleukin-12 (protein, UniProt P43431 23-215; P43432 23-335, looked up)
Interleukin-12 subunit alpha: RVIPVSGPARCLSQSRNLLKTTDDMVKTAREKLKHYSCTAEDIDHEDITRDQTSTLKTCLPLELHKNESCLATRETSSTTRGSCLPPQKTSLMMTLCLGSIYEDLKMYQTEFQAINAALQNHNHQQIILDKGMLVAIDELMQSLNHNGETLRQKPPVGEADPYRVKMKLCILLHAFSTRVVTINRVMGYLSSA
Interleukin-12 subunit beta: MWELEKDVYVVEVDWTPDAPGETVNLTCDTPEEDDITWTSDQRHGVIGSGKTLTITVKEFLDAGQYTCHKGGETLSHSHLLLHKKENGIWSTEILKNFKNKTFLKCEAPNYSGRFTCSWLVQRNMDLKFNIKSSSSSPDSRAVTCGMASLSAEKVTLDQRDYEKYSVSCQEDVTCPTAEETLPIELALEARQQNKYENYSTSFFIRDIIKPDPPKNLQMKPLKNSQVEVSWEYPDSWSTPHSYFSLKFFVRIQRKKEKMKETEEGCNQKGAFLVEKTSTEVQCKGGNVCVQAQDRYYNSSCSKWACVPCRVRS
Consider B1, for which the growth of tumors result in test [1] (continuous subcutaneous infusion 1 μg IL-12/day for four weeks) is given as “initially suppressed for two weeks followed by slower growth”. Moreover, in test [1] (continuous subcutaneous infusion 1 μg IL-12/day, end of 4-week observation period), the “tumor size at end of observation period” value is “significantly smaller size”. In test [2], the corneal neovascularity result was “significantly less corneal neovascularity”.

For the origin of these results see US7223596B2, “Malignant endothelial cell line and uses thereof in models for angiogenesis” (Wisconsin Alumni Research Foundation, priority 2003, dated 2007).
